Laboratory results taken from patent US20050152888A1.

Experiments:
[1] = target: Pre10 proteasome subunit C-terminally fused with Fpr1 (strain Pre10-FPR1) (S. cerevisiae) (UniProt P21242); assay: cell-based or functional assay
[2] = target: Rpn10 proteasome subunit C-terminally fused with Fpr1 (strain Rpn10-FPR1) (S. cerevisiae) (UniProt P38886); assay: cell-based or functional assay
Rpn10 proteasome subunit C-terminally fused with Fpr1 (strain Rpn10-FPR1) (S. cerevisiae), sequence (P38886 other isoform, or with tags, fused parts or gaps): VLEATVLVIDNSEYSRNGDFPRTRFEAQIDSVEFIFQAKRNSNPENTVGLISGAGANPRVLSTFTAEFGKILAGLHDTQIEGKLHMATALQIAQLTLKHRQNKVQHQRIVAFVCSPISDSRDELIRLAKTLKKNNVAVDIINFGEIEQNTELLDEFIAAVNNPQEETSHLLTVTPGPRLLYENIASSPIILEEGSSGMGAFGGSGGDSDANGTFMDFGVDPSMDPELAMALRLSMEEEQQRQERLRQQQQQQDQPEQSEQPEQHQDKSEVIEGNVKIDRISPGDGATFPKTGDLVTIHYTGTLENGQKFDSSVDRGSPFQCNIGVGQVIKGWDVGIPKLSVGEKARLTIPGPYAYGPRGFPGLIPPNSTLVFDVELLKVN

Pre10 proteasome subunit C-terminally fused with Fpr1 (strain Pre10-FPR1) (S. cerevisiae), sequence (P21242 other isoform, or with tags, fused parts or gaps): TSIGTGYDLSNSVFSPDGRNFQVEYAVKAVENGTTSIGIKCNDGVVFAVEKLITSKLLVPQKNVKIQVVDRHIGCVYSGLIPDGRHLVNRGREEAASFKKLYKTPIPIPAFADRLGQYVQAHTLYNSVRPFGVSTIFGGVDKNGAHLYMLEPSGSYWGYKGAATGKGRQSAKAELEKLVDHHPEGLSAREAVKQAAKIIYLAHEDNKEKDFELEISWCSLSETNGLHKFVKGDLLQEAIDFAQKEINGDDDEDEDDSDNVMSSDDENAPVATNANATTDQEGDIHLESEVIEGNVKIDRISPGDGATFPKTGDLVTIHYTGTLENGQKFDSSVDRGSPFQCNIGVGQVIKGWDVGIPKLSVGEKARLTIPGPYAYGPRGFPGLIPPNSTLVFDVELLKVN

HA epitope-tagged Tor-His3 expressed in yeast (p415-TOR-link-HIS3HA) (from UniProt P35169 1883-2078; P06633 1-220)
half-life of reporter degradation in vivo with rapamycin (cycloheximide chase, anti-HA Western) [1]: 20 to 30 min | half-life of reporter degradation in vivo with rapamycin (cycloheximide chase, anti-HA Western) [2]: 20 to 30 min
